Laboratory results taken from US20210221876A1.

Tests used:
[1] = target: h12H4 light chain P95Gz mutant; test: competitive ELISA; row P95Gz (light chain CDR3 mutant of h12H4); reference wt h12H4
[2] = target: h12H4 heavy chain Y52aF mutant; test: competitive ELISA; row Y52aF (heavy chain CDR2 mutant of h12H4); reference wt h12H4
[3] = target: h12H4 heavy chain P52bG mutant; test: competitive ELISA; row P52bG (heavy chain CDR2 mutant of h12H4); reference wt h12H4
Sequence of h12H4 heavy chain P52bG mutant (VH, as listed by the source limits assumed, chain 1 of 2): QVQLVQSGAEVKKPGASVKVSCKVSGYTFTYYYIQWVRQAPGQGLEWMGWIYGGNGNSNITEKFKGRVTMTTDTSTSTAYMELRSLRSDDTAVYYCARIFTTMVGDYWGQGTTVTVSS
Sequence of h12H4 heavy chain P52bG mutant (VL, as listed by the source limits assumed, chain 2 of 2): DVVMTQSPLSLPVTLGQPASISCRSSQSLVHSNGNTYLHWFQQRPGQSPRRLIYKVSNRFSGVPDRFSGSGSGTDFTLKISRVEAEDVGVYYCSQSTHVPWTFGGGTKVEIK

Sequence of h12H4 heavy chain Y52aF mutant (VH, as listed by the source limits assumed, chain 1 of 2): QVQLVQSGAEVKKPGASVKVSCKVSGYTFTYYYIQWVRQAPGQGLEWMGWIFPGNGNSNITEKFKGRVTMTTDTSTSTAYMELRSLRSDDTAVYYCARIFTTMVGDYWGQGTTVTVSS
Sequence of h12H4 heavy chain Y52aF mutant (VL, as listed by the source limits assumed, chain 2 of 2): as the sequence (VL, as listed by the source limits assumed, chain 2 of 2) above
Sequence of h12H4 light chain P95Gz mutant (VH, as listed by the source, chain 1 of 2): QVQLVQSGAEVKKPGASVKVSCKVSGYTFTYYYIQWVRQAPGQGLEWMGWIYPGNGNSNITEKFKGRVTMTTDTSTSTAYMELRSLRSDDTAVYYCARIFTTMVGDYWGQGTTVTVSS
Sequence of h12H4 light chain P95Gz mutant (VL, as listed by the source, chain 2 of 2): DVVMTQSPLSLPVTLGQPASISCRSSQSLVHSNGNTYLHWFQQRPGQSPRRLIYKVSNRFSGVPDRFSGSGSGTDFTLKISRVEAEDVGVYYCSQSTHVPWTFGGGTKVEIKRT

- IC50 ratio (mutant/wt) (ratio (mutant/wt)) [1]: 1.5
- IC50 ratio (mutant/wt) (ratio (mutant/wt)) [2]: 1.4
- IC50 ratio (mutant/wt) (ratio (mutant/wt)) [3]: 1
Binder: SVNVDKQPKYEYSL [peptide … (hCE3C peptide, without the N-terminal Cys)]
